Reference: PMC8695127 (2021)

Key:
[1] = target: T1, SARS-CoV-2 spike (S) protein peptide on HLA-DPA1*01:03 / HLA-DPB1*04:01 (human); assay: multimer staining
T1 peptide: TFEYVSQPFLMDLE

[2] = target: T2, SARS-CoV-2 spike (S) protein peptide on HLA-DPA1*01:03 / HLA-DPB1*04:01 (human); assay: activation reporter or marker
T2 peptide: CTFEYVSQPFLMDLE

[3] = target: T3, SARS-CoV-2 spike (S) protein peptide on HLA-DPA1*01:03 / HLA-DPB1*04:01 (human); assay: multimer staining
T3 peptide: TFEYVSQPFLMDLE

B1: TCR4.1 (TCR)
alpha TRAV35 TRAJ42 CDR3: CAGMNYGGSQGNLIF
beta TRBV4-1 TRBJ1-2 CDR3: CASSQGVGYTF
binding result [1]: recognises
binding result [2]: recognises
binding result [3]: recognises

B2: TCR6.3 (TCR)
alpha TRAV35 TRAJ42 CDR3: CAGMNYGGSQGNLIF
beta TRBV6-3 TRBJ1-2 CDR3: CASSYRGAYGYTF
binding result [1]: recognises
binding result [2]: recognises
